US20180362585A1 (Bicycle, published 2018)
Numbered stars: 1 amine (or outer) side, 2 acyl side, 3 side chain; on linkers, the order of the positions; unused ones are H or OH. Bridge positions count the residues as written; N and C are the ends. Ends that are not written are not given here. TBMB = c1c(C[*:1])cc(C[*:3])cc1C[*:2]

Experiments:
[1] = target: T1, human plasma Kallikrein (human, UniProt P03952 20-638); experiment: phage binding assay
T1 construct: also called hPK; human PK

[2] = target: T1, human plasma Kallikrein; experiment: phage binding assay; remark: listed apart in the source
Experimental: Library transformant colonies, or selection output colonies, were picked and grown as individual cultures in 2TY broth containing selective antibiotic. The picked colonies were DNA-sequenced using a QIAgen PyroMark Q96 DNA sequencer to reveal the amino-acid substitution present in each clone, and were assayed for human plasma Kallikrein binding as follows. The phage-containing supernatant was harvested from the culture and phage were cyclised with tris bromomethyl benzene (TBMB) based on the methods of Heinis et al (Nature Chemical Biology vol. 5 pp 502-507 (2009)). The purified phage from this process were assayed for binding to biotinylated human plasma Kallikrein using a homogeneous plate-based binding assay; assay read-out measured on a BMG Labtech Pherastar FS plate reader. The quantitative binding data from duplicate assay samples was averaged (mean) and expressed as signal:background. […] The assay data was correlated with the peptide sequences.
Selections against human plasma Kallikrein were performed at a variety of stringencies (see Phage selections' in Methods above). All output sequences were identified and analysed for target binding (see ‘Randomisation of peptide domains—Assay of binding of individual clones’ in Methods above). Table 17 lists each unique sequence, its relative abundance in the selection output (frequency), and a rank number according to target binding strength.

T1 sequence (P03952 20-638 limits assumed): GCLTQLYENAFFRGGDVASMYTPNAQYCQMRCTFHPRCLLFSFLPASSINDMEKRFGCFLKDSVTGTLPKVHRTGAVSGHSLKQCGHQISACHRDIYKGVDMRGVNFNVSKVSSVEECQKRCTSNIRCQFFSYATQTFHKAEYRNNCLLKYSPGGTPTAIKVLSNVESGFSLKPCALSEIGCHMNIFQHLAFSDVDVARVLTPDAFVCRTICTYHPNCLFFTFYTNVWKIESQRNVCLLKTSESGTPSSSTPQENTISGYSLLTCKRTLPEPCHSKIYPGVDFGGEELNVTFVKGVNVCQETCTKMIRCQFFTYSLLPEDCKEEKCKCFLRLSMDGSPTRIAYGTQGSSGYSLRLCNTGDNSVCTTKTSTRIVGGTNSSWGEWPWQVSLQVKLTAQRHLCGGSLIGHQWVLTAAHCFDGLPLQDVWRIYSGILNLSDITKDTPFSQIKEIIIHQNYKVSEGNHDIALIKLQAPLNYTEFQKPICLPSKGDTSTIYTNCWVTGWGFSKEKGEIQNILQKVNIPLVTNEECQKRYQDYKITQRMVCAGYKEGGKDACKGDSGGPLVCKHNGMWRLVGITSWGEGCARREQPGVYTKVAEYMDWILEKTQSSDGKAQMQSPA

| Binder | BINDING ASSAY SIGNAL [1] | RANK (Kallikrein binding) [2] |
| --- | --- | --- |
| CQWPARCMHQELC (linker 1-7-13 via TBMB (inferred), on phage) | 73 |  |
| CAWPARCLHQDWC (linker 1-7-13 via TBMB, on phage) | 63 |  |
| CQWPARCMHQDMC (linker 1-7-13 via TBMB (inferred), on phage) | 75 |  |
| CSWPARCTHTELC (linker 1-7-13 via TBMB, on phage) | 69 |  |
| CSWPARCLHTELC (linker 1-7-13 via TBMB, on phage) | 68 |  |
| CAWPARCTHQTMC (linker 1-7-13 via TBMB, on phage) | 61 |  |
| CTWPARCLHQHMC (linker 1-7-13 via TBMB, on phage) | 61 |  |
| CAWPARCTHADLC (linker 1-7-13 via TBMB, on phage) | 79 |  |
| CSFLYKCTHQDLC (linker 1-7-13 via TBMB (inferred), on phage) |  | 29 |
| CRWPARCTHTDLC (linker 1-7-13 via TBMB (inferred), on phage) | 59 |  |
| CPWPARCTHTDLC (linker 1-7-13 via TBMB (inferred), on phage) | 70 |  |
| CSWPARCTHADLC (linker 1-7-13 via TBMB, on phage) | 100 |  |
| CAWPARCTHTDFC (linker 1-7-13 via TBMB, on phage) | 80 |  |
| CPWPARCTHQNLC (linker 1-7-13 via TBMB (inferred), on phage) | 69 |  |
| CSFPIRCTHQDLC (linker 1-7-13 via TBMB (inferred), on phage) |  | 15 |
| CSWPARCTHSDLC (linker 1-7-13 via TBMB, on phage) | 59 |  |
| CHWPARCTHQDLC (linker 1-7-13 via TBMB, on phage) | 110 |  |
| CSWPARCTHSHLC (linker 1-7-13 via TBMB, on phage) | 72 |  |
| CQWPARCTHSDLC (linker 1-7-13 via TBMB (inferred), on phage) | 74 |  |
| CAWPARCTHVDLC (linker 1-7-13 via TBMB, on phage) | 82 |  |
| CSFPFWCTHQDLC (linker 1-7-13 via TBMB (inferred), on phage) |  | 34 |
| CSFPFKCTHQDLC (linker 1-7-13 via TBMB (inferred), on phage) |  | 6 |
| CNWPARCTHQDLC (linker 1-7-13 via TBMB (inferred), on phage) | 116 |  |
| CRWPARCTHQDLC (linker 1-7-13 via TBMB (inferred), on phage) | 73 |  |
| CTWPARCTHTDMC (linker 1-7-13 via TBMB, on phage) | 67 |  |
| CAWPARCTHYDLC (linker 1-7-13 via TBMB, on phage) | 70 |  |

| Binder | BINDING ASSAY SIGNAL [1] | RANK (Kallikrein binding) [2] |
| --- | --- | --- |
| CRFPFKCTHQDLC (linker 1-7-13 via TBMB (inferred), on phage) |  | 11 |
| CVWPARCTHQDLC (linker 1-7-13 via TBMB, on phage) | 71 |  |
| CPWPARCTHQDLC (linker 1-7-13 via TBMB (inferred), on phage) | 107 |  |
| CLWPARCTHQDLC (linker 1-7-13 via TBMB, on phage) | 90 |  |
| CHWPARCMHQDLC (linker 1-7-13 via TBMB, on phage) | 71 |  |
| CLWPARCTHADLC (linker 1-7-13 via TBMB, on phage) | 74 |  |
| CAWPARCTHTHLC (linker 1-7-13 via TBMB, on phage) | 66 |  |
| CEWPARCLHTDLC (linker 1-7-13 via TBMB, on phage) | 60 |  |
| CSFMYKCTHQDLC (linker 1-7-13 via TBMB (inferred), on phage) |  | 37 |
| CSWPARCIHQDLC (linker 1-7-13 via TBMB, on phage) | 68 |  |
| CTWPARCTHTDLC (linker 1-7-13 via TBMB, on phage) | 88 |  |
| CSFPWRCTHQDLC (linker 1-7-13 via TBMB (inferred), on phage) |  | 23 |
| CHWPARCTHQELC (linker 1-7-13 via TBMB, on phage) | 85 |  |
| CTWPARCTHADLC (linker 1-7-13 via TBMB, on phage) | 71 |  |
| CSFPYKCTHQDLC (linker 1-7-13 via TBMB (inferred), on phage) |  | 22 |
| CAWPARCTHTDLC (linker 1-7-13 via TBMB, on phage) | 92 |  |
| CPWPARCLHTDLC (linker 1-7-13 via TBMB (inferred), on phage) | 58 |  |
| CSFPYRCTHQDLC (linker 1-7-13 via TBMB (inferred), on phage) |  | 5 |
| CMWPARCMHQDLC (linker 1-7-13 via TBMB (inferred), on phage) | 79 |  |
| CSWPARCTHAEMC (linker 1-7-13 via TBMB, on phage) | 59 |  |
| CSWPARCVHQDMC (linker 1-7-13 via TBMB, on phage) | 61 |  |
| CAWPARCLHADMC (linker 1-7-13 via TBMB, on phage) | 66 |  |
| CTWPARCTHQAFC (linker 1-7-13 via TBMB, on phage) | 59 |  |
| CAWPARCMHDDLC (linker 1-7-13 via TBMB, on phage) | 69 |  |
| CDWPARCMHQEFC (linker 1-7-13 via TBMB, on phage) | 63 |  |
| CTWPARCLHQDLC (linker 1-7-13 via TBMB, on phage) | 73 |  |
